First the molecules themselves.
B1: Msh2–Msh3 (complex, S. cerevisiae)
chain 1: MSSTRPELKFSDVSEERNFYKKYTGLPKKPLKTIRLVDKGDYYTVIGSDAIFVADSVYHTQSVLKNCQLDPVTAKNFHEPTKYVTVSLQVLATLLKLCLLDLGYKVEIYDKGWKLIKSASPGNIEQVNELMNMNIDSSIIIASLKVQWNSQDGNCIIGVAFIDTTAYKVGMLDIVDNEVYSNLESFLIQLGVKECLVQDLTSNSNSNAEMQKVINVIDRCGCVVTLLKNSEFSEKDVELDLTKLLGDDLALSLPQKYSKLSMGACNALIGYLQLLSEQDQVGKYELVEHKLKEFMKLDASAIKALNLFPQGPQNPFGSNNLAVSGFTSAGNSGKVTSLFQLLNHCKTNAGVRLLNEWLKQPLTNIDEINKRHDLVDYLIDQIELRQMLTSEYLPMIPDIRRLTKKLNKRGNLEDVLKIYQFSKRIPEIVQVFTSFLEDDSPTEPVNELVRSVWLAPLSHHVEPLSKFEEMVETTVDLDAYEENNEFMIKVEFNEELGKIRSKLDTLRDEIHSIHLDSAEDLGFDPDKKLKLENHHLHGWCMRLTRNDAKELRKHKKYIELSTVKAGIFFSTKQLKSIANETNILQKEYDKQQSALVREIINITLTYTPVFEKLSLVLAHLDVIASFAHTSSYAPIPYIRPKLHPMDSERRTHLISSRHPVLEMQDDISFISNDVTLESGKGDFLIITGPNMGGKSTYIRQVGVISLMAQIGCFVPCEEAEIAIVDAILCRVGAGDSQLKGVSTFMVEILETASILKNASKNSLIIVDELGRGTSTYDGFGLAWAIAEHIASKIGCFALFATHFHELTELSEKLPNVKNMHVVAHIEKNLKEQKHDDEDITLLYKVEPGISDQSFGIHVAEVVQFPEKIVKMAKRKANELDDLKTNNEDLKKAKLSLQEVNEGNIRLKALLKEWIRKVKEEGLHDPSKITEEASQHKIQELLRAIANEPEKENDNYLKYIKALLL
chain 2: MAGQPTISRFFKKAVKSELTHKQEQEVAVGNGAGSESICLDTDEEDNLSSVASTTVTNDSFPLKGSVSSKNSKNSEKTSGTSTTFNDIDFAKKLDRIMKRRSDENVEAEDDEEEGEEDFVKKKARKSPTAKLTPLDKQVKDLKMHHRDKVLVIRVGYKYKCFAEDAVTVSRILHIKLVPGKLTIDESNPQDCNHRQFAYCSFPDVRLNVHLERLVHHNLKVAVVEQAETSAIKKHDPGASKSSVFERKISNVFTKATFGVNSTFVLRGKRILGDTNSIWALSRDVHQGKVAKYSLISVNLNNGEVVYDEFEEPNLADEKLQIRIKYLQPIEVLVNTDDLPLHVAKFFKDISCPLIHKQEYDLEDHVVQAIKVMNEKIQLSPSLIRLVSKLYSHMVEYNNEQVMLIPSIYSPFASKIHMLLDPNSLQSLDIFTHDGGKGSLFWLLDHTRTSFGLRMLREWILKPLVDVHQIEERLDAIECITSEINNSIFFESLNQMLNHTPDLLRTLNRIMYGTTSRKEVYFYLKQITSFVDHFKMHQSYLSEHFKSSDGRIGKQSPLLFRLFSELNELLSTTQLPHFLTMINVSAVMEKNSDKQVMDFFNLNNYDCSEGIIKIQRESESVRSQLKEELAEIRKYLKRPYLNFRDEVDYLIEVKNSQIKDLPDDWIKVNNTKMVSRFTTPRTQKLTQKLEYYKDLLIRESELQYKEFLNKITAEYTELRKITLNLAQYDCILSLAATSCNVNYVRPTFVNGQQAIIAKNARNPIIESLDVHYVPNDIMMSPENGKINIITGPNMGGKSSYIRQVALLTIMAQIGSFVPAEEIRLSIFENVLTRIGAHDDIINGDSTFKVEMLDILHILKNCNKRSLLLLDEVGRGTGTHDGIAISYALIKYFSELSDCPLILFTTHFPMLGEIKSPLIRNYHMDYVEEQKTGEDWMSVIFLYKLKKGLTYNSYGMNVAKLARLDKDIINRAFSISEELRKESINEDALKLFSSLKRILKSDNITATDKLAKLLSLDIH

What all share (assay): co-IP
One test concerns the target T1, His–rad1R218A–Rad10 (S. cerevisiae, UniProt P06777 1-1100; P06838 1-210, R218A).
T1 sequence (looked up) 1: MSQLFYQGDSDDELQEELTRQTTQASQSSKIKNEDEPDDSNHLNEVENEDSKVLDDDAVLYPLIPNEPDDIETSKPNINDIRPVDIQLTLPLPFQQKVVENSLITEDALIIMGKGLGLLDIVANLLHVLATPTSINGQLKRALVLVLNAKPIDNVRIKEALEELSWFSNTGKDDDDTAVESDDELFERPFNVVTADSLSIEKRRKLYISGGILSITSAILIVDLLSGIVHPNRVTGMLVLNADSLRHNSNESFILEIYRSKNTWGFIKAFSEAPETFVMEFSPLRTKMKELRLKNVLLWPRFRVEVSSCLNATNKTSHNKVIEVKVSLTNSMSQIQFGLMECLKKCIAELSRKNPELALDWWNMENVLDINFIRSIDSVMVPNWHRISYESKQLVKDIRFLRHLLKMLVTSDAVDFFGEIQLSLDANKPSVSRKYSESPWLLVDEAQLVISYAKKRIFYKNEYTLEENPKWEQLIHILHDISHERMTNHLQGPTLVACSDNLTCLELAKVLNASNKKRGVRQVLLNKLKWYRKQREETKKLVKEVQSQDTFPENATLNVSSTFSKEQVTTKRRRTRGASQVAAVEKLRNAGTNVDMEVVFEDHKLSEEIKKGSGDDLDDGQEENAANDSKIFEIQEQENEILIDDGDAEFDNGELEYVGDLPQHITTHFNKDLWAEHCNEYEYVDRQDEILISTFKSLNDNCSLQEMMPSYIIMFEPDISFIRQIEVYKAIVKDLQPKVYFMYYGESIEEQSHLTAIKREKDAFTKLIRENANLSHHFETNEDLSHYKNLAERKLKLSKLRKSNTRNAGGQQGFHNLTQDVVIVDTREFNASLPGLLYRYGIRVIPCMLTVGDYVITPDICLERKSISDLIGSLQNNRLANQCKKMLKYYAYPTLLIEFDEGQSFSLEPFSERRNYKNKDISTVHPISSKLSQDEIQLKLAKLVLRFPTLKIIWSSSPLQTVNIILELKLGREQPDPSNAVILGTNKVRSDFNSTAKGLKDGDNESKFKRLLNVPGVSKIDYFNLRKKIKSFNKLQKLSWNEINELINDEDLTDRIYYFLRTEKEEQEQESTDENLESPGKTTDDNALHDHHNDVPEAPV
T1 sequence (looked up) 2: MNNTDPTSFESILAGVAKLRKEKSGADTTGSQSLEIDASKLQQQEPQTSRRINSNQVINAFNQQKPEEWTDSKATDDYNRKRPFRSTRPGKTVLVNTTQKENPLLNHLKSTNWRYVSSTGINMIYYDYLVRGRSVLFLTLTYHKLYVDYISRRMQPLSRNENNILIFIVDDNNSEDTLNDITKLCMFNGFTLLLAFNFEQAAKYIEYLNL

The target in a further test is T2, His–Rad1–Rad10 (S. cerevisiae, UniProt P06777 1-1100; P06838 1-210).
T2 sequence (looked up) 1: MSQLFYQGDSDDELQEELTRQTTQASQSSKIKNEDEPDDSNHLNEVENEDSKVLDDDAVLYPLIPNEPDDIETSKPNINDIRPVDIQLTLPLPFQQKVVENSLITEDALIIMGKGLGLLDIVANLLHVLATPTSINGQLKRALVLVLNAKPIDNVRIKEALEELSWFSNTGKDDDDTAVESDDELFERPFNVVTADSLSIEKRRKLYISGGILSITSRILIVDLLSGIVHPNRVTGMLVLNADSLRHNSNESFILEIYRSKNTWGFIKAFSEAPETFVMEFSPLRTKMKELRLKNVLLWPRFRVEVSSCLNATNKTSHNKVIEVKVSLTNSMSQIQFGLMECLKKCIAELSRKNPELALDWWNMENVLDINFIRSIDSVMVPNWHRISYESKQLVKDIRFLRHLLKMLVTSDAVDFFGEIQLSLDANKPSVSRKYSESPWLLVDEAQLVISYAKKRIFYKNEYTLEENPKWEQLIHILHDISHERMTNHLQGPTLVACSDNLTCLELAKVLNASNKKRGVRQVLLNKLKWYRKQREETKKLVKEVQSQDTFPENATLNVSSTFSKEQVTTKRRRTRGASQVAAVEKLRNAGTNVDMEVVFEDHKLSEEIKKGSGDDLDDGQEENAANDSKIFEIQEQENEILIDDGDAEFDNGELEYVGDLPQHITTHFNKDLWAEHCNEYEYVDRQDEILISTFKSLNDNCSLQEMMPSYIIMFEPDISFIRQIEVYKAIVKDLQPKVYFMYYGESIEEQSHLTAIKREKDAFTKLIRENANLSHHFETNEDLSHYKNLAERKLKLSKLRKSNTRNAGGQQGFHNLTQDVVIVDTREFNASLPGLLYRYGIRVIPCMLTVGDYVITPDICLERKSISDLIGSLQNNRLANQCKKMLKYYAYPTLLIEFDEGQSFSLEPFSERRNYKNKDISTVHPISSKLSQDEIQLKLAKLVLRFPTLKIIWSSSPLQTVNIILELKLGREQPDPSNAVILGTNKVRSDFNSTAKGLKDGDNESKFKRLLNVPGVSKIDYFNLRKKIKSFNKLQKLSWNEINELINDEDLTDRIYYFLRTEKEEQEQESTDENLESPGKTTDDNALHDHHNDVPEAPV
T2 sequence (looked up) 2: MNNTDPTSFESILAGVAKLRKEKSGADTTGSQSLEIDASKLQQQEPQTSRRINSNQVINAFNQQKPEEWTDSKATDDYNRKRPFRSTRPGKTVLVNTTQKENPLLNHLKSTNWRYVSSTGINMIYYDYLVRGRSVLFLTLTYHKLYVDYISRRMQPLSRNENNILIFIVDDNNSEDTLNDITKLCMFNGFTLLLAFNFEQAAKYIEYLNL

The test “Msh2–Msh3” has as its target B1.

In the case of B1, in the test with His–rad1R218A–Rad10, the “fold enhancement of the interaction by non-specific DNA” value was around 2 fold.

B2: 6xHis–Saw1 (natural protein, S. cerevisiae, UniProt P39735 1-261, looked up)
chain: MAPSIATVKIARDMVLPLRIFVNRKQILQTNDKTSNKSNATIFEAPLLSNNSIICLKSPNTRIYLSQQDKKNLCDEIKEDLLLIVYELASPEIISSVLSKIRVGHSTDFQINVLPKLFAGADTDNAVTSHIQSVTRLAKFKYKLHYKHKWELDIFINSIKKIANLRHYLMFQTLTLNGFSLNAGPKTLLARKIEKQPQVPNLLIENGDADALDTPVEEDIKPVIEFMYKPVINLGEIIDVHVLHRPRRHKVRTQSKQPQEE
With B2, the binding result in the test with His–Rad1–Rad10 and in the test with Msh2–Msh3 was “binds” each time.

Source of the values: article PMC6007489 (Nucleic Acids Research, 2018).
